What was measured:
[1] = target: GST-P/Q, residues 1898-2035 of the rat P/Q channel α1 subunit (Cav2.1) C-terminal tail (rat); experiment: pull-down; 5 μM GST fusion protein immobilised on glutathione-agarose; 5 μM GST-free NCS-1 or CaM added; 150 mM KCl, 20 mM HEPES pH 7.4, 10% glycerol, 5 mM NTA, 5 mM EGTA, 1 mM DTT, 0.1% NP-40, with 1 μM free Ca2+; 1 h, 4 °C; Western blot, densitometry normalised to NCS-1 on GST-PQ with Ca2+ = 100%
[2] = target: Cav2.1 P/Q-type calcium channel IQ domain (Homo sapiens) (UniProt O00555); experiment: ITC; conditions: cited from earlier work
Cav2.1 P/Q-type calcium channel IQ domain (Homo sapiens), sequence (O00555 1963-1983): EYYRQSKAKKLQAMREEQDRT

Neuronal calcium sensor-1 (NCS-1), GST-free recombinant protein from the GST-NCS-1 plasmid, sequence (P62166 whole entry): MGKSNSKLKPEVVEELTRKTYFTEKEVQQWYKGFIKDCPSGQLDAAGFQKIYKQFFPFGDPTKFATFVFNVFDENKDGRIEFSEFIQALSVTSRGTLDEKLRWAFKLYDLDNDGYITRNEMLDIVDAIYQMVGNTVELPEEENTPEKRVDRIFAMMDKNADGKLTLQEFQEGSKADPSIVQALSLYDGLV

| average NCS-1 bound (%) [1] | Substance | Kd [2] |
| --- | --- | --- |
| 100% | Neuronal calcium sensor-1 (NCS-1), GST-free recombinant protein from the GST-NCS-1 plasmid (from UniProt P62166 1-190) (natural protein) | – |
| – | calmodulin C lobe C lobe (from UniProt P0DP23) | 4.32 nM |
